From the Human Domainome abundance scans (Beltran et al. 2025)

B1: Ventral anterior homeobox 1, residues 102 to 157; numbered along this chain, Q5SQQ9 (parent)
chain: RTRTSFTAEQLYRLEMEFQRCQYVVGRERTELARQLNLSETQVKVWFQNRRTKQKK

Variants of: B1
Test: abundance fitness (aPCA) (normalised: wild type 0, dead -1); higher = more abundant; growth selection in yeast, the domain comes from the species named
Details: Homo sapiens

Abundance fitness, by site and new letter:
T41: D 0.105 | Y -0.2 | C 0.164 | E 0.106 | A 0.032 | I -0.5 | W -0.12 | R -0.336 | H -0.027 | Q 0.227 | P -0.152 | S 0.006 | K -0.381 | V -0.104 | N -0.127 | G 0.03 | F -0.129 | M 0.095 | L 0.024
F47: W -0.651 | I -0.663 | E -1.04 | M -0.228 | P -0.836 | C -0.743 | A -1.02 | T -0.792 | Y -0.376 | H -0.754 | K -0.885 | V -0.787 | R -0.873 | D -0.674 | G -0.976 | S -0.762 | Q -0.767
K53: H -0.226 | G -0.037 | T 0.197 | F 0.174 | M -0.103 | W -0.04 | L 0.183 | Q 0.115 | N 0.199 | C 0.202 | I -0.02 | E 0.186 | R -0.088 | Y 0.292 | S 0.161 | A 0.044 | V 0.137 | D 0.209
Q48: C -0.051 | H -0.505 | K 0.142 | Y -0.298 | W -0.619 | R -0.172 | L -0.051 | V -0.115 | I -0.284 | D -0.11 | T -0.076 | E -0.193 | S -0.111 | G -0.314 | A -0.167 | M -0.122
K55: G 0.043 | N 0.081 | W -0.105 | S -0.072 | R -0.187 | F -0.229 | I -0.238 | Y -0.199 | D 0.305 | E 0.238 | H -0.149 | A 0.086 | L 0.128 | V 0.119 | M -0.288 | P 0.061 | Q 0.29 | C -0.091
E40: M -0.852 | Y -0.712 | Q -0.507 | V -0.315 | W -0.736 | P -0.318 | S -0.283 | R -0.57
K44: Y -0.271 | G -0.049 | D 0.129 | E 0.048 | H -0.26 | N 0.002 | M -0.079 | Q -0.091 | W -0.167 | S 0.106 | A 0.038 | V -0.032 | R -0.22 | P -0.94 | C -0.069 | L -0.175 | F -0.464
Q42: A 0.021 | M -0.252 | S -0.364 | I 0.007 | F -0.266 | V -0.153 | T 0.163 | D 0.028 | W -0.397 | C -0.563 | E 0.183 | K -0.473 | Y 0.053 | G -0.603 | L -0.137 | P -0.824 | R -0.223 | N -0.257
Q54: E 0.11 | C -0.252 | V -0.017 | S -0.125 | L -0.045 | G 0.005 | T -0.332 | N -0.202 | R -0.237 | A 0.018 | I -0.191 | W -0.187 | F -0.284 | P 0.013 | K 0.144 | Y -0.317 | H -0.149
T52: L -0.141 | F -0.285 | G 0.137 | M 0.194 | P -0.558 | V -0.014 | W -0.316 | Q -0.145 | K 0.091 | D 0.154 | Y -0.137 | H -0.279 | N -0.037 | E 0.139 | C -0.165 | R -0.249 | I -0.358 | A -0.11
R51: Y -0.091
